The text below walks through data of patent US12364743B2, “Microbiota sequence variants of tumor-related antigenic epitopes” (ENTEROME S.A., priority 2016, dated 2025).

Assay [1] concerns unresectable or metastatic melanoma. To be noted: patients; cited from earlier work.
In assay [2] the target is T1, HLA-A*0201 (Homo sapiens, UniProt P04439, D140Y/D185E/D98H/E176V/E277Q/G131W/G231S/I119V/I121R/I166T/I218V/L300P/L318F/N151K/N90K/P208A/P217A/Q86G/Q94H/R138H/R169H/T345S).
T1 construct: the human tumoral cell T2 which expresses the HLA-A*0201 molecule, but which is TAP 1/2 negative; endogenous in cells; host or cells: T2 cells (human, TAP 1/2 negative)
Description: Affinity of peptides to HLA-A*0201 on T2 cells (FACS, anti-HLA-A2). Format: binding. To be noted: for concentration inducing 20% of expression of the HLA-A*0201: 100% = reference peptide HIV pol 589-597 at 100 μM; for binding affinity to HLA-A*0201 compared among peptides: Example 5; for Mean fluorescence intensity: 16 hours. An excerpt: The experimental protocol is similar to the one that was validated for peptides presented by the HLA-A*0201 (Tourdot et al., A general strategy to enhance immunogenicity of low-affinity HLA-A2.1-associated peptides: implication in the identification of cryptic tumor epitopes. Eur J Immunol. 2000 December; […]:3411-21). Affinity measurement of the peptides is achieved with the human tumoral cell T2 which expresses the HLA-A*0201 molecule, but which is TAP 1/2 negative and incapable of presenting endogenous peptides.
T2 cells (2.10^5 cells per well) were incubated with decreasing concentrations of peptides from 100 μM to 0.1 μM in a AIMV medium supplemented with 100 ng/μl of human β2m at 37° C. for 16 hours. Cells were then washed two times and marked with the anti-HLA-A2 antibody coupled to PE (clone BB7.2, BD Pharmagen).
The analysis was performed by FACS (Guava Easy Cyte). […] A2. Solubilisation of Peptides
The experimental protocol, materials and methods correspond to those outlined in Example 4, with the only difference that the above mentioned antigenic peptides were used.

The subject of assay [3] is β/A2/DR3 mice. Description: ELISPOT-IFNγ on splenocytes of vaccinated mice. In kind it is in vivo, mouse. The following applies: for percentage of ConA-induced response (mean+/−SEM): ELISPOT-IFNγ, vaccination 100 μg s.c. d0 and d14, spleen d21. The source says: Briefly, 14 β/A2/DR3 mice were assigned randomly (based on mouse sex and age) to two experimental groups, each immunized with a specific vaccination peptide (vacc-pAg) combined to a common helper peptide (h-pAg) (as outlined in Table 7 below). The vacc-pAg were compared in couples (group 1 vs. group 2). Thereby, both native and optimized versions of a single peptide were compared in each wave.
The animals were immunized on day o (do) with a prime injection, and on d14 with a boost injection. Each mouse was injected s.c. at tail base with 100 μL of an oil-based emulsion that contained: • 100 μg of vacc-pAg (25 μL of 4 mg/mL stock per mouse); • 150 μg of h-pAg (15 μL of 10 mg/mL stock per mouse); • 10 μL of PBS to reach a total volume of 50 μL (per mouse); • Incomplete Freund's Adjuvant (IFA) added at 1:1 (v:v) ratio (50 μL per mouse).
Seven days after the boost injection (i.e. on d21), the animals were euthanized and the spleen was harvested. Splenocytes were prepared by mechanical disruption of the organ followed by 70 μm-filtering and Ficoll density gradient purification.
The splenocytes were immediately used in an ELISPOT-IFNγ assay (Table 8). Experimental conditions were repeated in quadruplets, using 2*10^5 total splenocytes per well, and were cultured in presence of vacc-pAg (10 μM), Concanavalin A (ConA, 2.5 μg/mL) or medium-only to assess for their capacity to secrete IFNγ. The commercial ELISPOT-IFNγ kit (Diaclone Kit Mujrine IFNγ ELISpot) was used following the manufacturer's instructions, and the assay was performed after about 16 h of incubation.
Spots were counted on a Grand ImmunoSpot® S6 Ultimate UV Image Analyzer interfaced to the ImmunoSpot 5.4 software (CTL-Europe). Data plotting and statistical analysis were performed with the Prism-5 software (GraphPad Software Inc.).
The data were then normalized as a number of specific spots (the average counts obtained in the ‘medium only’ condition being subtracted) per 10^6 total T cells.
The individual average values (obtained from the quadruplicates) were next used to plot the group average values (see FIG. 3A). As the functional capacity of T cells might vary from individual to individual, the data were also expressed as the percentage of the ConA response per individual (see FIG. 3B).

Assay [4] concerns U87-MG cells. Description: In vitro cytotoxicity of CD3+ T cells from immunized mice against U87 cells. Format: cell-based. The following applies: CD3+ T cells of mice immunized with the peptide; 72 hours co-culture; DAPI/annexin V cytometry. On the procedure: Briefly, CD8 T cells from mice immunized with IL13RA2-H or […] were used. These cells were obtained after sorting of splenocyte from immunized mice and were placed on top of U87 cells (tumor cells expressing IL13RA2).
In more detail, CD3^+ T cells were purified from splenocytes of HHD mice immunized with IL13RA2-H ([…], SEQ ID NO: 1) or IL13RA2-B ([…], SEQ ID NO: 18). To this end, B6 β2 m^ko HHD/DR3 mice were injected s.c. at tail base with 100 μL of an oil-based emulsion containing vaccination peptide plus helper peptide plus CFA (complete Freund's adjuvant), at day 0 and day 14 as described in Example 5. On d21, i.e. seven days after the boost injection, the animals were euthanized and the spleen was harvested. Splenocytes were prepared by mechanical disruption of the organ. CD3+ purification was performed using the mouse total T cells isolation kit from Miltenyi biotec using the recommended procedure. […]
U87-MG cells were seeded at 6×10^5 cells/well in flat-bottomed 24-well culture plates and incubated for 24 h at 37° C. in DMEM (Dulbecco's Modified Eagle Medium) containing 10% of FCS (fetal calf serum) and antibiotics. […] 72 hours after co-culture of U87-MG cells and CD3+ T cells, all cells from the wells were harvested and specific U87-MG cell death was evaluated after immunostaining of CD45 negative cells with DAPI and fluorescent annexin V followed by cytometry analysis.

The subject of assay [5] is NSCLC. The following applies: patients; cited from earlier work.
Assay [6] concerns renal cell carcinoma (RCC). The following applies: patients; cited from earlier work.
[7] abbreviates: ex vivo re-stimulation with IL13RA2-B pAg 10 μM.
Where [8] appears, read: ex vivo re-stimulation with IL13RA2-H pAg 10 μM.

Take Ipilumumab: anti-CTLA-4 antibody: the three-year survival rate entry in assay [1] was “around 20%”.
With “FLPFGFILV (sequence variant) [SEQ ID NO: 18]”, in assay [2], the “binding to HLA-A*0201” value is reported as “binds strongly”. In assay [2], the “concentration inducing 20% of expression of the HLA-A*0201” value was found to be 4.4 µM. Further, the “binding affinity to HLA-A*0201 compared among peptides” value in assay [2] is listed as “considerably higher binding affinity to HLA-A*0201 than all other peptides tested”. Besides, the Mean fluorescence intensity in assay [2] (peptide at 0.1 μM) was determined as 9.9; in assay [2] (peptide at 1 μM) it was 12.18; in assay [2] (peptide at 10 μM), 40.77; in assay [2] (peptide at 100 μM), 112.05. Besides, the “In vitro binding affinity” value in assay [2] (relative affinity = concentration inducing 20% of HLA-A*0201 expression / that of reference peptide HIV pol 589-597, lower = stronger) is on record as 0.49. Further, the “percentage of ConA-induced response (mean+/−SEM)” value was determined as 56.3%+/−18.1 in assay [3] (setting [7]) and 32.3%+/−11.8 in assay [3] (setting [8]). Further, the “T cell responses in the ELISPOT-IFNγ assay” value in assay [3] (compared to IL13RA2-H-vaccinated animals) was “improved T cell responses”. For the same substance, the U87 cell lysis result in assay [4] is on record as “U87 cell lysis was observed”.
Consider “1A9V: SEQ ID NO: 1 with tryptophan at position 1 substituted by alanine and isoleucine at position 9 by valine (Eguchi et al., 2006) (ALPFGFILV; listed as Homo sapiens)”, for which, in assay [2], the “binding affinity to HLA-A*0201 compared among peptides” value is listed as “lowest affinity of the peptides tested”.
Consider “WLPFGFILI (listed as Homo sapiens) [SEQ ID NO: 1]”, for which the “binding to HLA-A*0201” value in assay [2] is on record as “does not bind”. Further, in assay [2], the “concentration inducing 20% of expression of the HLA-A*0201” value is 100 µM. Also, the Mean fluorescence intensity in assay [2] (peptide at 0.1 μM) worked out at 7.46; in assay [2] (peptide at 1 μM), 9.41; in assay [2] (peptide at 10 μM), 11.61; in assay [2] (peptide at 100 μM) it was 18.64. For the same substance, the “percentage of ConA-induced response (mean+/−SEM)” value in assay [3] (setting [7]) was 2.0%+/−0.8; in assay [3] (setting [8]), 1.1%+/−0.8. In addition, the U87 cell lysis result in assay [4] is given as “not”.
“Nivolumab: check point inhibitor targeting PD1”: the three-year survival rate in assay [5] is 18%; in assay [6], 44%.
